Results on one substance are retold here after patent US5739278A, “Compositions for protein tyrosine phosphatases” (University of Washington, priority 1995, dated 1998).

Where no end group is shown, it is not given here. [ ]: non-standard residue; d: D form. pY = N[C@@H](Cc1ccc(OP(=O)(O)O)cc1)C(=O)O

What all share (assay type): biochemical
The target in one experiment is T1, TCΔC11.PTP (Homo sapiens, UniProt P17706).
T1 construct: both the wild type and truncated forms of the T-cell phosphatase; made in house; host or cells: Sf9 cells (baculovirus)
T1 sequence (P17706 1-317 limits assumed): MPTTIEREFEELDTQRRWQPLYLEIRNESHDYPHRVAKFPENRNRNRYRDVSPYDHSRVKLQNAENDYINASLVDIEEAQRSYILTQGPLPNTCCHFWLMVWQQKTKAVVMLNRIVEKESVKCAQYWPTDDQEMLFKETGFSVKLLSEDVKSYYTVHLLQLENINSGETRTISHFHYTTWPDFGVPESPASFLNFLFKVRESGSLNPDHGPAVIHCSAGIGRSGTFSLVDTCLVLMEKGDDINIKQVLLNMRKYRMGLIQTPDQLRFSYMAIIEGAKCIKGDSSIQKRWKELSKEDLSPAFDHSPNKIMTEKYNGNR
Description: Phosphatase assay with ENDY(P)INASL as substrate. The method, boiled down:
(§1)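 TC.PTP, TCΔC11.PTP and RPTPα were purified from infected Sf9 cells; PTP1B (37 kDa form) was purified from placenta. Enzyme, ENDY(P)INASL phosphopeptide and effectors were incubated in buffer M6 for 10 min at 30 °C. The reaction was stopped with acidic charcoal, and radioactivity was counted in the cleared supernatant.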

For another experiment, the target named is T2, PTP1B (Homo sapiens, UniProt P18031).
T2 construct: The 37 kDa form of PTP1B; from tissue; host or cells: placenta
T2 sequence (P18031 1-321 limits assumed): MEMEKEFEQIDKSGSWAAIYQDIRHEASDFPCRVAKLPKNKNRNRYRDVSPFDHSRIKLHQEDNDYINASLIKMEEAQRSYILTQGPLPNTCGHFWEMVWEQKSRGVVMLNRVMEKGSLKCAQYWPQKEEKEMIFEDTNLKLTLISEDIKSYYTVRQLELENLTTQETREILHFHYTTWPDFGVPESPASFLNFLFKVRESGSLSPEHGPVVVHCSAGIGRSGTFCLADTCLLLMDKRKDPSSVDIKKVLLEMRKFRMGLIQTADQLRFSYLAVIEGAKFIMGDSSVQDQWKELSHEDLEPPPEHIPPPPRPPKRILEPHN
Description: Phosphatase assay with ENDY(P)INASL as substrate. The settings on record: non-linear regression of substrate saturation curves, mean of two experiments. The method, boiled down:
as §1

For experiment [1], the target named is T3, TC.PTP (Homo sapiens, UniProt P17706).
T3 construct: made in house; host or cells: Sf9 cells (baculovirus)
T3 sequence (P17706 1-415): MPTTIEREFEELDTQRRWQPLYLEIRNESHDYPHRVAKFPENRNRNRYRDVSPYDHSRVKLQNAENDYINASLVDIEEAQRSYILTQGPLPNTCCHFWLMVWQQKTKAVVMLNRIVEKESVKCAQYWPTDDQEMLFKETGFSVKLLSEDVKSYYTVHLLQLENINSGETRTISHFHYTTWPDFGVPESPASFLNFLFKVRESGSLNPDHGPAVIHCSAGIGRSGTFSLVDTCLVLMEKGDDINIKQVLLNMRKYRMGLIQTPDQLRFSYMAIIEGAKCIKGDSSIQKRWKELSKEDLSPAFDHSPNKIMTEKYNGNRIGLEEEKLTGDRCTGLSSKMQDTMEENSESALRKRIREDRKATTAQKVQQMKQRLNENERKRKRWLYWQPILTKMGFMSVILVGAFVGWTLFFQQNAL
As to the kind of experiment: Phosphatase assay with ENDY(P)INASL as substrate. The settings on record: TC20. The method, boiled down: as §1

Experiment [2] deals with T3, TC.PTP. As to the kind of experiment: Determination of TC.PTP activity in immunoprecipitates. The settings on record: for % Dephosphorylation: 100% = total bound radioactivity in the assay. The protocol: Immunoprecipitations were carded out in 500 μl buffer AT containing phosphatase (in the amount indicated in the tables below), 3 μl rabbit antisera #6228 raised against the baculovirus expressed TCΔC11.PTP (Zander et al., Biochemistry 30: 6964-6970, 1991) and 20 μl protein A agarose beads. The mixture was rotated overnight at 4° C. The beads were washed three times with HNTG and tested for PTP activity. No PTP activity was detected in controls without antisera.
Phosphatase assays with ENDY(P)INASL were performed in buffer M6. Aliquots of 30 μl or 60 μl containing the phosphopeptide, the phosphatase (-beads) and effectors were incubated for 10 minutes at 30° C. The reaction was stopped by adding 200 μl of a suspension of 10% activated, acid-washed Norit A charcoal (v/v) in 0.9N HCl, 0.1M pyrophosphate and 2 mM NaH2 PO4 (according to Streuli et al., Proc. Natl. Acad. Sci. USA 86: 8698-8702, 1989). The mixture was cleared by 10-minute centrifugation and the radioactivity of 150 μl of the supernate was determined. Assays with MBP and RCML were performed as described in Tonks et al., J. Biol. Chem. 263: 6722-6730, 1988. Protein concentration was determined with BSA as standard (Bradford, Anal. Biochem. 72: 248-254, 1976).

Where [3] appears, read: non-linear regression of substrate saturation curves, mean of two experiments.
The mark [4] stands for this setting: one unit = release of 1 nmol phosphate per minute.

Turning to “ENDY(P)INASL: ENDYINASL phosphorylated on its tyrosine residue (32P), used as PTP substrate (END[pY]INASL; also: phosphate 32P-labelled)”, the Km with TCΔC11.PTP (setting [3]) turned out to be 1 ± 0.4 µM; with PTP1B, 0.8 ± 0.45 µM; in the experiment with TC.PTP [1] (setting [3]) it was 1.13 ± 0.14 µM. In addition, the Vmax in the experiment with TCΔC11.PTP (setting [4]) was 13374 +/- 970 U/mg; in the experiment with TC.PTP [1] (setting [4]), 14221 +/- 7104 U/mg. For the same substance, the “Lowest amount of immunoprecipitated phosphatase that could be detected with the substrate” value in the experiment with TC.PTP [2] (TC.PTP immunoprecipitates on beads) is listed as 1 ng. Moreover, the “% Dephosphorylation” value with TC.PTP [2] (immunoprecipitated TC.PTP 0.3 ng) was found to be 0%; with TC.PTP [2] (immunoprecipitated TC.PTP 1 ng) it was 1.8%; with TC.PTP [2] (immunoprecipitated TC.PTP 3 ng), 3.9%; with TC.PTP [2] (immunoprecipitated TC.PTP 10 ng) it was 10.8%; with TC.PTP [2] (immunoprecipitated TC.PTP 30 ng), 17.5%; in the experiment with TC.PTP [2] (immunoprecipitated TC.PTP 100 ng), 28.1%.
